Values of other authors, collected in US20160114039A1, “TREATMENT OF POLYPOIDAL CHOROIDAL VASCULOPATHY” (BAYER HEALTHCARE LLC, priority 2013, published 2016).

Test system: symptomatic PCV
Conditions: sixty-one Asian patients with symptomatic PCV; primary end point assessed at month 6

B1: ranibizumab (antibody, chains of the INN, looked up, V domains shown)
VH: EVQLVESGGGLVQPGGSLRLSCAASGYDFTHYGMNWVRQAPGKGLEWVGWINTYTGEPTYAADFKRRFTFSLDTSKSTAYLQMNSLRAEDTAVYYCAKYPYYYGTSHWYFDVWGQGTLVTVSS
VL: DIQLTQSPSSLSASVGDRVTITCSASQDISNYLNWYQQKPGKAPKVLIYFTSSLHSGVPSRFSGSGSGTDFTLTISSLQPEDFATYYCQQYSTVPWTFGQGTKVEIK
modifications: Fab
notes: anti-VEGF agent ranibizumab (Lucentis)
Question: With B1 as the molecule, how does the complete polyp regression read?
Answer: Its complete polyp regression is 28.6%.
